Data set [1] can be described thus: Activity assay with biotinylated O^6-benzylguanine (BG-Bt), Western blotting. Type of data set: biochemical. As to conditions: statement in words. The method, boiled down: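 Purified mutant GST-AGT (0.2 μM) reacted with 1 μM biotinylated O^6-benzylguanine in 50 mM HEPES pH 7.2, 1 mM DTT at room temperature. Time-point aliquots quenched with O^6-benzylguanine in SDS buffer. Biotinylated protein detected by Western blot with neutravidin-peroxidase, band intensity quantified.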
On the technique in general: In western blotting, separated proteins are transferred to a membrane and probed.

For data set [2], the system named is DNA. As to the kind of experiment: DNA binding in vitro (co-purified DNA, UV spectroscopy). The arrangement: species or system E. coli. The protocol: The interaction with DNA is e.g. quantified by assessing the amount of copurified DNA from E. coli extracts under conditions of low salt and absence of DNase. This is compared between parallel purifications of fusion proteins (e.g. fusions to GST) of wild type (human) and mutant AGT by spectroscopic methods (ratio of absorbance at 260 and 280 nm). Alternatively the interaction of AGT with DNA is measured as the inhibition of AGT reactivity with BG-Cy3 (O^6-(4-aminomethyl-benzyl)-guanine coupled to Cy3) as substrate in the presence of DNA. This approach takes advantage of a marked increase of fluorescence of the Cy3 fluorophore upon reaction of BG-Cy3 with AGT. The reaction kinetics of AGT with a Cy3-labeled benzylguanine derivative is followed by fluorescence intensity measurements over several hours at various concentrations of salmon sperm DNA.
For comparing the DNA binding properties of the protein in vitro, the harvested cells are resuspended, and the GST fusion protein is purified following the same method but in a buffer containing 50 mM phosphate, 0.1 M NaCl, 1 mM DTT. In the dialysed samples, the amount of subsequently co-purified DNA is estimated by UV spectroscopy. Spectra are recorded using a Perkin Elmer Lambda 10. The content of DNA corresponds to the ratio of the extinctions at 280 and 260 nm. […]

A short description of data set [3]: Expression yield of soluble GST-AGT fusion protein. The arrangement: species or system E. coli. As to conditions: comparator not stated. As for the experimental part: Expression yield is measured in E. coli or in any other of the standard production cells for genetically modified proteins, e.g. yeast, or preferably insect cells, CHO cells or HeLa cells. For quantifying expression yield, AGT fusion proteins may be chosen such that the fusion partner allows easy purification and quantification. For example, expression yield in E. coli is determined by measuring and comparing the yield of soluble and insoluble GST-wild type AGT fusion protein and GST-mutant AGT fusion protein from parallel E. coli expression cultures. Samples of the soluble fractions and insoluble fractions (i.e. the inclusion bodies) after cell lysis are subjected to SDS-PAGE, and the band staining intensities of the corresponding AGT fusion proteins are compared. Soluble protein is quantified after purification of the fusion protein from cell extracts by affinity chromatography (e.g. for GST-AGT fusion proteins by glutathione sepharose) by subjecting the purified fractions to a protein concentration assay (Bradford, Anal Biochem 72:248-54, 1976). The expression yield of similar proteins in the soluble fraction (difference in point mutations) can be used as a measure for protein stability in the unpurified as well as the purified state (Ohage et al., J Mol Biol 291:1119-1128, 1999; Wirtz et al., Protein Sci 8: 2245-50, 1999). Therefore, this is taken as a measure of folding stability and aggregation tendency.
Protein expression from this vector is carried out in E. coli strain BL21. An exponentially growing culture is induced with 0.5 mM IPTG, and the expression is carried out for 3.5 h at 24° C.
Purification: The harvested cells are resuspended in a buffer containing 50 mM phosphate, 0.5 M NaCl, 1 mM DTT, supplemented with 1 mM PMSF and 2 μg/ml aprotinin, and disrupted by lysozyme and sonification. The cell debris are separated by centrifugation at 40000×g. The extract is applied to pre-equilibrated glutathione sepharose (Amersham) which is then washed with 20 bed volumes (50 mM phosphate, 0.5 M NaCl, 1 mM DTT). The mutated GST-AGT fusion protein is eluted with 10 mM reduced glutathione in 50 mM Tris·HCl pH 7.9. The purified protein is dialyzed against 50 mM HEPES pH 7.2; 1 mM DTT; 30% glycerol and then stored at −80° C.
Determination of protein yield: Purity and relative amounts of the GST-AGT fusion proteins are compared by running samples on SDS-PAGE. UV spectra of the pure fractions are recorded using a Perkin Elmer Lambda 10. For protein samples containing no significant amount of DNA, the extinction at 280 nm as a measure of protein content is compared to that of wild type hAGT or PGEG-hAGT that were purified under the same conditions.

Data set [4] is described as follows: Periplasmic expression / stability under oxidizing conditions. The arrangement: species or system E. coli. As for the experimental part:
The activities towards AGT substrates are measured after purification without addition of reducing agents such as dithiothreitol or beta-mercaptoethanol. Alternatively, the activities of mutant AGT and wild type human are compared after their export into cellular compartments with oxidising redox potential (e.g. the periplasm of E. coli due to their fusion to appropriate signal sequences. Activity towards AGT substrates under reducing and oxidising conditions is compared by performing the reactions in the presence or absence of reducing agents such as dithiothreitol or beta-mercaptoethanol.
The mutant AGT gene of Example 1 is amplified and cloned as described in Example 1 with the oligonucleotides SEQ ID NO:3, SEQ ID NO:10 and SEQ ID NO:4, SEQ ID NO:9 causing the further mutation Cys62Ala in the gene upon their incorporation by PCR. Protein expression, purification and determination of yield is carried out as described in Example 1. The mutant gene is PCR amplified with the primers SEQ ID NO:11, SEQ ID NO:12 that contain SfiI restriction sites to subclone the gene in fusion to the g3 protein of filamentous phage in the vector pAK100 (Krebber et al., J Immunol Methods 201:35-55, 1997). […] The supernatant is directly subjected to quantification of protein yield via SDS-PAGE and activity assays as described in Example 1.
Stability under oxidizing conditions: The mutant gene is PCR amplified with the primers SEQ ID NO:11 and SEQ ID NO:28 to subclone the gene into pAK100, as described in Example 2. […] To compare the reactivity of […] (Juillerat et al., Chem Biol 10:313-317, 2003) and the mutant, samples are incubated with 1 µM BG-Bt for 50 min, quenched with SDS-Laemmli buffer and analyzed by western blotting using neutravidin peroxidase conjugate (Pierce) or a monoclonal mouse anti-FLAG IgG antibody (M2, Sigma) and a secondary anti-mouse-IgG::HRP conjugate, and Renaissance reagent plus (NEN). […] The anti-FLAG IgG antibody is used to estimate the total amount of soluble AGT protein, whereas neutravidin quantifies the reactive portion of it. […]

B1: Cys62Ala, Lys125Ala, Ala127Thr, Arg128Ala, Asn157Gly, Ser159Glu, truncated after Gly182: particularly preferred hAGT mutant with the listed mutations (protein, UniProt P16455 1-207, looked up, variant C62A K125A A127T R128A N157G S159E del183-207)
Methylated-DNA--protein-cystei …: MDKDCEMKRTTLDSPLGKLELSGCEQGLHEIKLLGKGTSAADAVEVPAPAAVLGGPEPLMQATAWLNAYFHQPEAIEEFPVPALHHPVFQQESFTRQVLWKLLKVVKFGEVISYQQLAALAGNPAATAAVGGAMRGNPVPILIPCHRVVCSSGAVGGYEGGLAVKEWLLAHEGHRLGKPGLG
B1: the “activity towards O^6-benzylguanine substrates” value in data set [1] was “increased reactivity”. Besides, the “reduced DNA binding” value in data set [2] is “reduced DNA binding”. In data set [3], the “expression yield in E. coli” value is given as “increased expression yield”. The sensitivity to oxidation result in data set [4] is reported as “reduced sensitivity to oxidation”.

The record behind these values is patent US7888090B2, “Mutants of O6-alkylguanine-DNA alkyltransferase” (Ecole Polytechnique Federale de Lausanne, priority 2004, dated 2011).
